Experimental data taken from the DeepSol protein solubility set.

Assay: soluble on expression in E. coli; label from the status in PepcDB or PDB records

Sequence | soluble on expression in E. coli
MSEKTFLVEIGTEELPPKALRSLAESFAANFTAELDNAGLAHGTVQWFAAPRRLALKVANLAEAQPDREIEKRGPAIAQAFDAEGKPSKAAEGWARGCGITVDQAERLTTDKGEWLLYRAHVKGESTEALLPNMVATSLAKLPIPKLMRWGASDVHFVRPVHTVTLLLGDKVIPATILGIQSDRVIRGHRFMGEPEFTIDNADQYPEILRERGKVIADYEERKAKIKADAEEAARKIGGNADLSESLLEEVASLVEWPVVLTAKFEEKFLAVPAEALVYTMKGDQKYFPVYANDGKLLPNFIFVANIESKDPQQIISGNEKVVRPRLADAEFFFNTDRKKRLEDNLPRLQTVLFQQQLGTLRDKTDRIQALAGWIAEQIGADVNHATRAGLLSKCDLMTNMVFEFTDTQGVMGMHYARHDGEAEDVAVALNEQYQPRFAGDDLPSNPVACALAIADKMDTLAGIFGIGQHPKGDKDPFALRRAALGVLRIIVEKNLNLDLQTLTEEAVRLYGDKLTNANVVDDVIDFMLGRFRAWYQDEGYTVDTIQAVLARRPTRPADFDARMKAVSHFRTLEAAAALAAANKRVSNILAKSDEVLSDRVNASTLKEPEEIKLAMQVVVLRDKLEPYFAEGRYQDALVELAELREPVDAFFDKVMVMVDDKELRLNRLTMLEKLRELFLRVADISLLQ | not soluble
MSELLEKAERLKTASQTLAMLSAEEKNAALEQIAQTLDRERAFILQENEKDMAQGCKQGLSPALLDRLQLTNERLDQIIDGVRQVASLPDPVGEIIAEWTRPNGLRIQTVRVPLGVIGMVYEARPNVTVDAASLCLKTGNAVLLRGSTSALHSNKALVRVMKEALRTTTVPETAIELLEDTSRETAQHMFRLNEYLDVLIPRGGAGLIRSVVENATVPVLETGVGNCHIFIDESAERQMAIDIVLNAKLQRPSVCNAVETVLIHERWPYADDLLETLHARGVELRGDQRLASAHPFVSEATEDDWYTEYLAPILAVKLVADVDEAIGHIRRYGTKHSEAIITENEANVRRFFQGVDAAVLYHNASTRFTDGEQFGYGAEIGISTQKLHARGPMGLVAITTTKSLVYGTGQIRE | not soluble
MSEMTKTPTHYRLLSTLKAMGPYLREGQCSERFYLFDCLASCVNDKKSPEKREFWGWWMELTQNEQEMSACYHIGRYTLAGDWVAEAIPESAQAEVNHTQAEFHKKLVKTLRERFEISVTVSTESAPFA | not soluble
MSEPLLIARTPDTELFLLPGMANRHGLITGATGTGKTVTLQKLAESLSEIGVPVFMADVKGDLTGVAQAGTVSEKLLARLKNIGVNDWQPHANPVVVWDIFGEKGHPVRATVSDLGPLLLARLLNLNDVQSGVLNIIFRIADDQGLLLLDFKDLRAITQYIGDNAKSFQNQYGNISSASVGAIQRGLLSLEQQGAAHFFGEPMLDIKDWMRTDANGKGVINILSAEKLYQMPKLYAASLLWMLSELYEQLPEAGDLEKPKLVFFFDEAHLLFNDAPQVLLDKIEQVIRLIRSKGVGVWFVSQNPSDIPDNVLGQLGNRVQHALRAFTPKDQKAVKAAAQTMRANPAFDTEKAIQELGTGEALISFLDAKGSPSVVERAMVIAPCSRMGPVTEDERNGLINHSPVYGKYEDEVDRESAYEMLQKGFQASTEQQNNPPAKGKEVAVDDGILGGLKDILFGTTGPRGGKKDGVVQTMAKSAARQVTNQIVRGMLGSLLGGRRR | soluble
MSEQLVTPENVTTKDGKINLLDLNRQQMREFFKDLGEKPFRADQVMKWMYHYCCDNFDEMTDINKVLRGKLKEVAEIRAPEVVEEQRSSDGTIKWAIAVGDQRVETVYIPEDDRATLCVSSQVGCALECKFCSTAQQGFNRNLRVSEIIGQVWRAAKIVGAAKVTGQRPITNVVMMGMGEPLLNLNNVVPAMEIMLDDFGFGLSKRRVTLSTSGVVPALDKLGDMIDVALAISLHAPNDEIRDEIVPINKKYNIETFLAAVRRYLEKSNANQGRVTIEYVMLDHVNDGTEHAHQLAELLKDTPCKINLIPWNPFPGAPYGRSSNSRIDRFSKVLMSYGFTTIVRKTRGDDIDAACGQLAGDVIDRTKRTLRKRMQGEAIDIKAV | soluble
MSEQSICQARASVMVYDDTSKKWVPIKPGQQGFSRINIYHNTASSTFRVVGVKLQDQQVVINYSIVKGLKYNQATPTFHQWRDARQVYGLNFASKEEATTFSNAMLFALNIMNSQEGGPSTQRQVQNGPS | soluble
MSERIASVERTTSETHISCTIDLDHIPGVTEQKINVSTGIGFLDHMFTALAKHGGMSLQLQCKGDLHIDDHHTAEDCALALGEAFKKALGERKGIKRYGYAYAPLDESLSRAVIDISSRPYFMCHLPFTREKVGDLSTEMVSHLLQSFAFAAGVTLHIDSIRGENNHHIAESAFKALALAIRMAISRTGGDDVPSTKGVLAL | soluble
MSERIVPSGDVELWSDDFGDPADPALLLVMGGNLSALGWPDEFARRLADGGLHVIRYDHRDTGRSTTRDFAAHPYGFGELAADAVAVLDGWGVDRAHVVGLSMGATITQVIALDHHDRLSSLTMLLGGGLDIDFDANIERVMRGEPTLDGLPGPQQPFLDALALMNQPAEGRAAEVAKRVSKWRILSGTGVPFDDAEYARWEERAIDHAGGVLAEPYAHYSLTLPPPSRAAELREVTVPTLVIQAEHDPIAPAPHGKHLAGLIPTARLAEIPGMGHALPSSVHGPLAEVILAHTRSAA | soluble
MSERLESRLAKVPKVTPEDIGNWLAEAETESELTEELNANAVFYLALSFAYESIAADAARYFSYTDGEESVDKSMIFANYKKLSADALKKYRKYRRGKGTHQTFAKRADGR | not soluble
MSERRDCIVCTSGTCGRSWVFFRSGSGRRCIRSIFRESEGRTFGSNRISGSADHWTAIVERRKSRERGSKMKKEMTNDMTVGSPTKLIIQFMIPMCLGNVFQQFYNIADS | not soluble
MSERSVSKQDQEKRWYTVLAPEEFDRAELGETLAEEPDQVYDRTIQAALSDVRDGGDNNIKLTFQIDDVGSDSASTQFVQAELTRDYQRSLVRRGSSKVAVTVTVLTTDDYRVRIQPVAYTTKQADQSQQHAIRRTMIDLVEEAGEERTFEALLNSIIEGRLSSAIYDEANTIYPLRRVEVEKATLEAHPEEVHEEEETAVDFSGELEHHHHHH | soluble
MSEVLTRGFRFRPADEEVTDYLMRKTQSPEFSCFIKTIDLYDKDPWVLGHVRDPCYNHYEWYYFVKKNPLGNEYLDKPRLNGFEHPRLKWDVLKQIHDALSSGQNVPPSVFTYGFRFHPTDQELLSLYLTPKAHSPDFSCFIRERESYMPWSHGFLNMLDLLFTRTVNGTTL | soluble
MSFETKPNYLLLTNPDTPLSVCTSPYYSPSGKTASIPSSEASKPEGTNGQWSHLPTGATYVTDEFSSEFQIQNGSTAAQSGNANNYADPLSHRRYFNNVNGYNHHQFYDTASQASVSSPATSVTSSLSPPDSLSNGHTTQRHHIGKAISFCKVCGDKASGYHYGVTSCEGCKGFFRRSIQRKIDYRCLKQQVCEIKRESRNRCQYCRFKKCLDSGMSKDSVRQMKFRNAMRDDKSPDSVFVPEISTLERQEEVDAVYEAVLRAHTTFSFYTDIKIRSIVARPFNVRINEDSKMNRLNAWQIYAHEIDVDIKEVVNFVKEIPKFNFINGNDKAVLLRKNAFPLYLLRIVRGMSNRGLMLRDGRLIDFKSLQLLYGSLADEMLAFANHIITIGCTDGDIALFIVLILCQPLTTEQQFSTNFKSQLQLLEMFDFYKKVLFQKMTCRIDGCDTYKQLMKCIHELNRLNELHKQQLNILRENLSFLNLPPLVVEMFQLSTLPLPVNHNNQENQYTPAPEHQSPQPQQPTPNQQQTPVHC | not soluble
MSFIDPYQHIIVEHQYSHKFTVVVLRATKVTKGAFGDMLDTPDPYVELFISTTPDSRKRTRHFNNDINPVWNETFEFILDPNQENVLEITLMDANYVMDETLGTATFTVSSMKVGEKKEVPFIFNQVTEMVLEMSLEV | soluble
MSGAGHSLNSDPVTTIATSSSEPVTSPSSASHVPVQTAPASHGAPSSVASQPPASVDGKAGAPDEARTASSASNPQGSEHPGSVDPAATTTAATTSASTTSITSTAATTTTTTTTGTTATGRVSPTIPPETLFHDAIKRCNNCLFLIRKLRNKQDHIARLFLDTSGNDQAEFNSAFQNYKDFGLMVHEVMMFYDKLDHIARHLPKALPPIDNINLMRTLYTQEHTMCHININNLLEKMIDCGNWNEGNFQTFFYLSELLRCGSTRKYSNLPEQRLVPPAMFHSQATNSHAAFEHAFNGLRKEIANKSLGIYPKVLQRTTCSLIIEFLFGCGGAKPGEKNTDKEIVYTIKFLIIERNGSIEYINIMAPTEDWHMVNDYAIPTINPFAPSRYEVYRRLTKQANIHLFNCFAQNRWTAGTLFHFISLYGKFRELFTTKCRSCKQVLSRKNFLPPLIFDIRNPNNAAHEVCR | not soluble
MSGDDYMGAMALLGIKPDTDPLSIKRAYRRLLSRHHPDKIAGSGANAQQVRVATEKTSELHNAYRVVKARRGFALEHHHHHH | not soluble
MSGEGMTAVSEPVQLTVPQMLAQLQGTDTSLRYYAAWWLGKFGLETATAAERQAIVSALIAALADEADRTELGGYPLRRNAARALGKLGDRQAVPALIECLRCEDFYVREAAAIALGQLGDPRAIAPLQSLLEGGVAMARLVPGRPHLVQPVEAVIESLGHLGATEAIALIEPFLAHEMPRVQFAAARALFQLTGDAVYGDRLLAALNSEDVQLRRTALLDLGAMGYLPAAEAILQAGVEASFKLIALHGILGQQLRQAAPAEQTLSLFQGLDQLLLEHHHHHH | soluble
MSGESVIEFTGFIKACRLFRENRLAEAEAVCTNLLRKNPLDQATWALKMQCLSDSTYVDELENEDMGLAETFLDQNVIAPNARPGTSFARPKTSAKGVNPILRPTTNAGRPLSGVVRPQSSFKSGSMDQAVRTARTAKTARAVSSTSARNMRLGTASMAAGADGEFVNLARLNIDKYAADPQVNRQLFEYVFYYLNDIRVAHQIAGTASKAAGFEDYYWKNQLAKCYLRLGMLQDATKQLQSSLEQKKLIETFALLSKAYNRVDQPMAALKTYSAGLEVFPENVTMLTGMARVQEALGEYDESVKLYKRVLDAESNNIEAIACVATTYYYGGKPELAMRYYRRILQMGVSSPELFLNIGLCCMAAQQFDFALSSILRAQSTMTDDVAADVWYNIGQILVDIGDLVSAARSFRIALSHDPDHSESLVNLGILKHREGKIDEARSLYSSATSKNPYMFEGNYNLGLVSFTQGKYHECRELIEKALAAFPEHEHCKKILNHLKPLYESI | not soluble
MSGFIPGSTTGSMLTAISDTHGTDNHRLTGRTLDAVREADHVLHAGDFMTEQVLDAIDAESDELTGVVGNNDRPAVRARLSDVATVSWEELTIVVVHGHEHTETALGMLARQENADIVVVGHSHKPVLTDFGGWTLVNPGSYADPRRYQPAHAELDVMAGDVRVRLRSPDGTPISTTIVERLEHHHHHH | not soluble
MSGGKLPEGWATSTINEMCNLNPKLKLDDDLDVGFMPMAGVPTTYLGKCNFETKKWSEVKKGFTQFQNDDVIFAKITPCFENGKAVVIKEFPNGYGAGSTEYYVLRSINGLINPHWLFALVKTKDFLTNGALNMSGSVGHKRVTKEFLENYGVPVPPLAEQKVIAEKLDTLLAQVDSTKARLEQIPQILKRFRQSVIVAAVNGQLTKELHKKNKFKLTELNISIPSLWKISEIGQFADVKGGKRLPKGESLIAENTGFPYIRAGQLKNGTVLPEGQLYLEEYIQKSISRYTVSSGDLYITIVGACIGDAGIIPDVYNNANLTENAAKICNLNENIFNRFLSLWLRSSYLQDIINSEIKSGAQGKLALARIKSLPLILPPLQEQHEIVRRVEQLFAYADTIEKQVNNALTRVNSLTQSILAKAFRGELTAQWRAENPELISGENSAAALLEKIKAERAASGGKKTSRKKA | not soluble
